Paper PMC10397247

Experiments:
Assay in all cases: two-hybrid library CCNG1;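 also: natural log of median RNA to DNA barcode read ratio; higher means stronger binding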
4H112-bN = molecular target: T1, 4H112-bN
T1 chain: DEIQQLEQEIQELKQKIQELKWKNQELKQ

4H1158-bN = molecular target: T2, 4H1158-bN
T2 chain: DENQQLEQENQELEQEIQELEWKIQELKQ

4H118-bN = molecular target: T3, 4H118-bN
T3 chain: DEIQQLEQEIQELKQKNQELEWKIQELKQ

4H170-bN = molecular target: T4, 4H170-bN
T4 chain: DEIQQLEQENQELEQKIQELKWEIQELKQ

4H1831-bN = molecular target: T5, 4H1831-bN
T5 chain: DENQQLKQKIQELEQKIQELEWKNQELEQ

4H2586-bN = molecular target: T6, 4H2586-bN
T6 chain: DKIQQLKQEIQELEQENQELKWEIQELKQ

4H2627-bN = molecular target: T7, 4H2627-bN
T7 chain: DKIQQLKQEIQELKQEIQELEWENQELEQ

4H2673-bN = molecular target: T8, 4H2673-bN
T8 chain: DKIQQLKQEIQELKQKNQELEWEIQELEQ

4H2702-bN = molecular target: T9, 4H2702-bN
T9 chain: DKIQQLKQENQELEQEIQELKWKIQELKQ

4H3010-bN = molecular target: T10, 4H3010-bN
T10 chain: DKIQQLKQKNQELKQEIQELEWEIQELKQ

4H3112-bN = molecular target: T11, 4H3112-bN
T11 chain: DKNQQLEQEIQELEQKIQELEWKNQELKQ

4H3427-bN = molecular target: T12, 4H3427-bN
T12 chain: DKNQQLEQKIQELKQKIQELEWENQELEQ

4H346-bN = molecular target: T13, 4H346-bN
T13 chain: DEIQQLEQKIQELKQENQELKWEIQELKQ

4H3926-bN = molecular target: T14, 4H3926-bN
T14 chain: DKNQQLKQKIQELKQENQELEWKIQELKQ

4H4073-bN = molecular target: T15, 4H4073-bN
T15 chain: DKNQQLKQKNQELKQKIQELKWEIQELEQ

4H457-bN = molecular target: T16, 4H457-bN
T16 chain: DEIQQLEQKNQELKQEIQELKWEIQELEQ

4H575-bN = molecular target: T17, 4H575-bN
T17 chain: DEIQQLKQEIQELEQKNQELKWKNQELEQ

4H683-bN = molecular target: T18, 4H683-bN
T18 chain: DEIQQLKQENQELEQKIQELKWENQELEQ

4H754-bN = molecular target: T19, 4H754-bN
T19 chain: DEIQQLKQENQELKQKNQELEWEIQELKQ

4H780-bN = molecular target: T20, 4H780-bN
T20 chain: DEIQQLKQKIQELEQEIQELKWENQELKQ

4H797-bN = molecular target: T21, 4H797-bN
T21 chain: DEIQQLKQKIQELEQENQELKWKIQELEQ

4H855-bN = molecular target: T22, 4H855-bN
T22 chain: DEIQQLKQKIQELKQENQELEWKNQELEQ

4H918-bN = molecular target: T23, 4H918-bN
T23 chain: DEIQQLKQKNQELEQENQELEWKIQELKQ

4H953-bN = molecular target: T24, 4H953-bN
T24 chain: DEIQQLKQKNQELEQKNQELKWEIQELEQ

4H968-bN = molecular target: T25, 4H968-bN
T25 chain: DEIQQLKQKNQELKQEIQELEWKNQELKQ

4H182-bH = molecular target: T26, 4H182-bH
T26 chain: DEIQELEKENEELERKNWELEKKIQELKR

4H2134-bH = molecular target: T27, 4H2134-bH
T27 chain: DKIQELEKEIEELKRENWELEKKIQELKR

4H2143-bH = molecular target: T28, 4H2143-bH
T28 chain: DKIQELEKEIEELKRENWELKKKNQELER

4H2223-bH = molecular target: T29, 4H2223-bH
T29 chain: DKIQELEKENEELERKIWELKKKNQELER

4H2438-bH = molecular target: T30, 4H2438-bH
T30 chain: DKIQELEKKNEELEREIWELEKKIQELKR

4H2473-bH = molecular target: T31, 4H2473-bH
T31 chain: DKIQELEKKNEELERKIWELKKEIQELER

4H2503-bH = molecular target: T32, 4H2503-bH
T32 chain: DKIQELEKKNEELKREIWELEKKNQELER

4H2588-bH = molecular target: T33, 4H2588-bH
T33 chain: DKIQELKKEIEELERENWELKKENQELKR

4H2692-bH = molecular target: T34, 4H2692-bH
T34 chain: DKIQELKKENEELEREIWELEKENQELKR

4H2717-bH = molecular target: T35, 4H2717-bH
T35 chain: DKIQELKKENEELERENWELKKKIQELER

4H2839-bH = molecular target: T36, 4H2839-bH
T36 chain: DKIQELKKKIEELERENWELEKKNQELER

4H2915-bH = molecular target: T37, 4H2915-bH
T37 chain: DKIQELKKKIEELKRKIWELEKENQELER

4H3057-bH = molecular target: T38, 4H3057-bH
T38 chain: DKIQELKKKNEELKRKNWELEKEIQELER

4H319-bH = molecular target: T39, 4H319-bH
T39 chain: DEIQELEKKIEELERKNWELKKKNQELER

4H3277-bH = molecular target: T40, 4H3277-bH
T40 chain: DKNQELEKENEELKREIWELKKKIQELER

4H348-bH = molecular target: T41, 4H348-bH
T41 chain: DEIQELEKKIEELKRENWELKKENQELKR

4H40-bH = molecular target: T42, 4H40-bH
T42 chain: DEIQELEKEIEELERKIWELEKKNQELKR

4H477-bH = molecular target: T43, 4H477-bH
T43 chain: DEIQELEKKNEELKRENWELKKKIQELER

4H492-bH = molecular target: T44, 4H492-bH
T44 chain: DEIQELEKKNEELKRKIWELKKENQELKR

4H741-bH = molecular target: T45, 4H741-bH
T45 chain: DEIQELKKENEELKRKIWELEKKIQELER

4H1359-bA = molecular target: T46, 4H1359-bA
T46 chain: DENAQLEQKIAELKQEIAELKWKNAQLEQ

4H1393-bA = molecular target: T47, 4H1393-bA
T47 chain: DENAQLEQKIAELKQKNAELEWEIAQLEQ

4H1449-bA = molecular target: T48, 4H1449-bA
T48 chain: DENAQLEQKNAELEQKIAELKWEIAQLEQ

4H1629-bA = molecular target: T49, 4H1629-bA
T49 chain: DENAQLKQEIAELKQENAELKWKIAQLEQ

4H1710-bA = molecular target: T50, 4H1710-bA
T50 chain: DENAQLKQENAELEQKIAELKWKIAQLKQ

4H1804-bA = molecular target: T51, 4H1804-bA
T51 chain: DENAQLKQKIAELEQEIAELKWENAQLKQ

4H1985-bA = molecular target: T52, 4H1985-bA
T52 chain: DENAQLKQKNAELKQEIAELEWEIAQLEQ

4H3129-bA = molecular target: T53, 4H3129-bA
T53 chain: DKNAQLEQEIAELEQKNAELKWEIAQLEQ

4H3172-bA = molecular target: T54, 4H3172-bA
T54 chain: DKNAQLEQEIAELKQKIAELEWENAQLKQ

4H3414-bA = molecular target: T55, 4H3414-bA
T55 chain: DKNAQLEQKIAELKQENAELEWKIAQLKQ

4H3631-bA = molecular target: T56, 4H3631-bA
T56 chain: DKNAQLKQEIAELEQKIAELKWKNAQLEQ

4H3638-bA = molecular target: T57, 4H3638-bA
T57 chain: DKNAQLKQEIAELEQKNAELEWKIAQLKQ

4H3817-bA = molecular target: T58, 4H3817-bA
T58 chain: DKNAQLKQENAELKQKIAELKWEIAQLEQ

4H3974-bA = molecular target: T59, 4H3974-bA
T59 chain: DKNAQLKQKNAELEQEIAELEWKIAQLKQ

4H570-bA = molecular target: T60, 4H570-bA
T60 chain: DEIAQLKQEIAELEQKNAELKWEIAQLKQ

4H584-bA = molecular target: T61, 4H584-bA
T61 chain: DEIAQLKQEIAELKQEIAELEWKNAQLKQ

4H619-bA = molecular target: T62, 4H619-bA
T62 chain: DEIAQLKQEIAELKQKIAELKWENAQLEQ

4H850-bA = molecular target: T63, 4H850-bA
T63 chain: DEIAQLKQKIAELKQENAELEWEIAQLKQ

4H906-bA = molecular target: T64, 4H906-bA
T64 chain: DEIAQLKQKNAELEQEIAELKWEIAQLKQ

B1: 4H112-bN (peptide)
chain: DEIQQLEQEIQELKQKIQELKWKNQELKQ
- interaction score (4H112-bN): 1.46
- interaction score (4H1158-bN): 0.877
- interaction score (4H118-bN): -0.511
- interaction score (4H170-bN): -0.245
- interaction score (4H1831-bN): 0.348
- interaction score (4H2586-bN): -1.21
- interaction score (4H2627-bN): 1.22
- interaction score (4H2673-bN): 0.592
- interaction score (4H2702-bN): 0.834
- interaction score (4H3010-bN): 1.25
- interaction score (4H3112-bN): 1.44
- interaction score (4H3427-bN): 1.06
- interaction score (4H346-bN): -0.486
- interaction score (4H3926-bN): -1.67
- interaction score (4H4073-bN): 1.25
- interaction score (4H457-bN): 0.723
- interaction score (4H575-bN): -0.471
- interaction score (4H683-bN): -0.968
- interaction score (4H754-bN): -0.189
- interaction score (4H780-bN): 0.755
- interaction score (4H797-bN): -1.01
- interaction score (4H855-bN): -0.582
- interaction score (4H918-bN): -0.456
- interaction score (4H953-bN): -0.805
- interaction score (4H968-bN): 0.452

B2: 4H182-bH (peptide)
chain: DEIQELEKENEELERKNWELEKKIQELKR
- interaction score (4H182-bH): 0.517
- interaction score (4H2134-bH): 0.462
- interaction score (4H2143-bH): 0.14
- interaction score (4H2223-bH): 0.341
- interaction score (4H2438-bH): -0.311
- interaction score (4H2473-bH): 0.11
- interaction score (4H2503-bH): 0.0255
- interaction score (4H2588-bH): -0.809
- interaction score (4H2692-bH): 1.16
- interaction score (4H2717-bH): -0.508
- interaction score (4H2839-bH): -0.281
- interaction score (4H2915-bH): 0.801
- interaction score (4H3057-bH): 0.511
- interaction score (4H319-bH): 0.27
- interaction score (4H3277-bH): -0.523
- interaction score (4H348-bH): -0.493
- interaction score (4H40-bH): -0.335
- interaction score (4H477-bH): -0.331
- interaction score (4H492-bH): -0.775
- interaction score (4H741-bH): -0.207

B3: 4H1359-bA (peptide)
chain: DENAQLEQKIAELKQEIAELKWKNAQLEQ
- interaction score (4H1359-bA): 0.162
- interaction score (4H1393-bA): -0.644
- interaction score (4H1449-bA): -0.804
- interaction score (4H1629-bA): -0.732
- interaction score (4H1710-bA): -0.54
- interaction score (4H1804-bA): -0.948
- interaction score (4H1985-bA): 0.768
- interaction score (4H3129-bA): -0.77
- interaction score (4H3172-bA): -0.287
- interaction score (4H3414-bA): -0.665
- interaction score (4H3631-bA): 1.41
- interaction score (4H3638-bA): -0.492
- interaction score (4H3817-bA): -0.524
- interaction score (4H3974-bA): -0.0513
- interaction score (4H570-bA): -0.609
- interaction score (4H584-bA): -0.341
- interaction score (4H619-bA): -0.844
- interaction score (4H850-bA): -0.751
- interaction score (4H906-bA): -0.601
